{"source": "paper PMC4847857", "key": {"[1]": {"biological_target": "ATP-binding cassette A1 (human (endogenous in THP-1)) (UniProt O95477)", "sequence (O95477 whole entry)": "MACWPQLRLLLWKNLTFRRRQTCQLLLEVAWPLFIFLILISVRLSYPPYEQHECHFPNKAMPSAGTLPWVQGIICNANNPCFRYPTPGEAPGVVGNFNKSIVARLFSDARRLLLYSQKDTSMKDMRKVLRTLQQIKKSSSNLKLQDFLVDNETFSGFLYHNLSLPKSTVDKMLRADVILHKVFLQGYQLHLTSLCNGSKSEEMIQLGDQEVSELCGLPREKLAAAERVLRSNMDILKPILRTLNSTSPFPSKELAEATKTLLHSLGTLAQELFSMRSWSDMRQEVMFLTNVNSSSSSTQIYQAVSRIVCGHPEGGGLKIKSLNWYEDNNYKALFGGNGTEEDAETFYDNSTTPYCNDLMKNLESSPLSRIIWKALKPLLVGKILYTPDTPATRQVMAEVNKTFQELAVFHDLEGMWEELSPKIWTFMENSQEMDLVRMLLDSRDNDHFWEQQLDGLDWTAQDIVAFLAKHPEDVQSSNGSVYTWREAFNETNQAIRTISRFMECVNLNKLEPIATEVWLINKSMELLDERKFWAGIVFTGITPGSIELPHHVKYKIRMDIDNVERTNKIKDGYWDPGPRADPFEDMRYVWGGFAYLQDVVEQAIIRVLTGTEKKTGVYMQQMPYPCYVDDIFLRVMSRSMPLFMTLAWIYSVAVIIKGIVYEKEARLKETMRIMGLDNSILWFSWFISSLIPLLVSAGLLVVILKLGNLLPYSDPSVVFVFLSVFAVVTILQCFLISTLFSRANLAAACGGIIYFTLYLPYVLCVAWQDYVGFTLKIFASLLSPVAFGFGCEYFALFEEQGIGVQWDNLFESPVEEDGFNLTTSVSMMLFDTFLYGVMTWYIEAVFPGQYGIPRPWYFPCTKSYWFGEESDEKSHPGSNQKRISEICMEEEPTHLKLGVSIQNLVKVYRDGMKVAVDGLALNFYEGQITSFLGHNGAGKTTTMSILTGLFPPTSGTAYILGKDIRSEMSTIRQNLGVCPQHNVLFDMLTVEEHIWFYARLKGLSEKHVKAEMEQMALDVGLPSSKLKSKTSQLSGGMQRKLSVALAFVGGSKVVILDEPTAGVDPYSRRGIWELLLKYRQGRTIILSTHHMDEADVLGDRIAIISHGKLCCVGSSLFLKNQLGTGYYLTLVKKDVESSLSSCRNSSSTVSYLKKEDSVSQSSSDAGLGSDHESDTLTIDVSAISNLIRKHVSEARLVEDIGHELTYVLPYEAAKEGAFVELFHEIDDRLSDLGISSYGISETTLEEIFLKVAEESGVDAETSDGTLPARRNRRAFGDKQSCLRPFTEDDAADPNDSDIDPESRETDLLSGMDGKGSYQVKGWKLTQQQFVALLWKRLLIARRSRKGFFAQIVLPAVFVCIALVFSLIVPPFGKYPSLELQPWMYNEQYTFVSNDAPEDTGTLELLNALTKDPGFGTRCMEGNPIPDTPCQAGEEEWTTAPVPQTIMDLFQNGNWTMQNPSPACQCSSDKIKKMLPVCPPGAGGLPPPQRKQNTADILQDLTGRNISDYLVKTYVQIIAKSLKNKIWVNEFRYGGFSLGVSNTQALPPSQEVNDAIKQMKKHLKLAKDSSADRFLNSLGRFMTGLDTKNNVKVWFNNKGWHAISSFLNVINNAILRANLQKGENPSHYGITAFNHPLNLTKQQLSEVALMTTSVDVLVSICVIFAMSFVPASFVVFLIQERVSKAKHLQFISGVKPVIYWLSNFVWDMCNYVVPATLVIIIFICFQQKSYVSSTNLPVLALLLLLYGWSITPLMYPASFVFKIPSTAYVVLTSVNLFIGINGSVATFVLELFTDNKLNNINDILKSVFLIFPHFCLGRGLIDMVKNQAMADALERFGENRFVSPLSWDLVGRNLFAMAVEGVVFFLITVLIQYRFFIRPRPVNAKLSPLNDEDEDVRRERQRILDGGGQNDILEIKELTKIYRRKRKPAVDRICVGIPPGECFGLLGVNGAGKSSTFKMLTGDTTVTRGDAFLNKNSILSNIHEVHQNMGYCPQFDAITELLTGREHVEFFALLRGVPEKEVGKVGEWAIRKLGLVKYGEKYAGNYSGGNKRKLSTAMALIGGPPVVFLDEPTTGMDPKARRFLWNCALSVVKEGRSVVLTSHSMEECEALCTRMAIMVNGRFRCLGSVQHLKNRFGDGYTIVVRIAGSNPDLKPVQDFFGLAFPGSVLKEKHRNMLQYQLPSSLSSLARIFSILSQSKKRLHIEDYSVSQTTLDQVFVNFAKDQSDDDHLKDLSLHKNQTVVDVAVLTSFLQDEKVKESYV"}, "[2]": {"biological_target": "ATP-binding cassette G1 (human (endogenous in THP-1)) (UniProt P45844)"}}, "data": [{"substance": "human apoA-1 from human plasma (from UniProt P02647 19-267) (ligand)", "values": [{"measurement": "cholesterol efflux from [H^3]-cholesterol-loaded THP-1 macrophages to apoA-I (10 μg/ml) after heat-killed L. acidophilus K301; no effect in the absence of apoA-I", "setting": "[1]", "value": 2.3, "unit": "fold"}, {"measurement": "cholesterol efflux from [H^3]-cholesterol-loaded THP-1 macrophages to apoA-I (10 μg/ml) after heat-killed L. acidophilus K301; no effect in the absence of apoA-I", "setting": "[2]", "value": 2.3, "unit": "fold"}]}]}
